# In PMC8521288:
# Where two headings read alike, the source gives them in different places.
# B1: MMP-9 aptamer (annealed to comp-1 on AuNS-1; MMP sensor) (mixed)
# DNA 1: TCGTATGGCACGGGGTTGGTGTTGGGTTGG
# DNA 2: GGTGTGCCATACGAAA
# modifications: 3' ThioMC3-D (thiol) on comp-1
# B2: control aptamer (annealed to control comp-1 on cAuNS-1; control sensor) (mixed)
# DNA 1: CCGGTGTTCGAGACAAGAGTCCAGGG
# DNA 2: CTCTCGAACACCGGAA
# modifications: 3' ThioMC3-D (thiol) on control comp-1
# Experiments:
# [1] = biological target: T1, human MMP-9 (hMMP-9) (Homo sapiens, UniProt P14780 107-457); test: AuNS aggregation by strand displacement
# [2] = biological target: T1, human MMP-9 (hMMP-9); test: AuNS aggregation by strand displacement; remark: listed apart in the source
# T1 sequence (P14780 107-457): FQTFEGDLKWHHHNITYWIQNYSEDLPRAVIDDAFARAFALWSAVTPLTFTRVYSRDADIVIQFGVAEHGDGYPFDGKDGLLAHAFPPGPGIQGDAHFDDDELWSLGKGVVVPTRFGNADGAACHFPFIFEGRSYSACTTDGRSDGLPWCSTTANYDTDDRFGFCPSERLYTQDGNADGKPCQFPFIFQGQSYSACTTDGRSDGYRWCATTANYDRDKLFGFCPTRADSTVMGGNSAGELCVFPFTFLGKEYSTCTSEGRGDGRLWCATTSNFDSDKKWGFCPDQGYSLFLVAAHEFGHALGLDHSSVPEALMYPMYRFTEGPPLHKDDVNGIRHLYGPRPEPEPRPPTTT
Binder,binding result [1],binding result [2]
B1,binds,–
B2,–,no binding
